Assay results as given in article PMC3786575.

Molecular target: USF-1-Flag (UniProt P22415)
Chain of UniProt P22415 (P22415 whole entry): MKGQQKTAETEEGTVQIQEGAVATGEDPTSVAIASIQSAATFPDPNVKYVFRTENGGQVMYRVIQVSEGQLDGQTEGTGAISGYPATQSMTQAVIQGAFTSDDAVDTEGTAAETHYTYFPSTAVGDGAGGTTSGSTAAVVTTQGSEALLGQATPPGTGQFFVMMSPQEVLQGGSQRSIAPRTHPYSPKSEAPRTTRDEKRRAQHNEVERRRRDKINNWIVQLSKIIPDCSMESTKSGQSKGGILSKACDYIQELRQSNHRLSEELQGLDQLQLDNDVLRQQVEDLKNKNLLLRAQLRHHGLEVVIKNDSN

| Substance | USF-dependent FAS promoter activation, luciferase reporter (Fig. 3D) [fold] |
| --- | --- |
| BAF60c-HA (from UniProt Q6STE5 1-483) (natural protein) | 4 |
| HA-tagged BAF60c S247D (from UniProt Q6STE5 1-483) (natural protein) | 4 |
